Square brackets hold non-standard residues; d marks the D form. Ends that are not written are not given here. Peptide text beside a SMILES is read from it. * marks the point of attachment. BODIPY(FL) = CC1=CC(C)=[N+]2C1=Cc1ccc(CCC(=O)*)n1[B-]2(F)F; FITC = O=C1OC2(c3ccc(O)cc3Oc3cc(O)ccc32)c2ccc(NC(=S)*)cc21; pS = N[C@@H](COP(=O)(O)O)C(=O)O
T1: RSV nucleoprotein N-terminal domain NNTD (residues 31–252) (human respiratory syncytial virus, UniProt P03418 31-252)
T1 construct: N-terminal domain of human RSV nucleoprotein N, residues 31-252; 15N-labelled for the NMR titration; also called N(31–252); 15N-NNTD; source: E. coli BL21(DE3), pET-N(31–252), purified as described previously [21]
T1 sequence (looked up): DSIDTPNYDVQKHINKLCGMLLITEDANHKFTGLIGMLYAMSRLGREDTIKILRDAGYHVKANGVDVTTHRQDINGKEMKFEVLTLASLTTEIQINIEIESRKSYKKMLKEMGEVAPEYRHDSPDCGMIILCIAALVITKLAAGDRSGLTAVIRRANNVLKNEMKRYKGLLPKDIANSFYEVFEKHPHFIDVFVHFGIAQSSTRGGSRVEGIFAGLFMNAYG

B1: F11 (fluorescein-5-thiourea-labelled RSV P11 peptide) (peptide)
peptide: {FITC}-DSDNDLSLEDF
notes: C-terminal 11 residues of RSV phosphoprotein P; also called F_(11SS); FTU-P11; source: bought P11 peptide (GeneCust), FITC coupled in solution, HPLC purified

Legend:
[1] = Chemical stability of fluorescently labeled P peptides; format: physicochemical; conditions: slightly acidic conditions / HPLC purification and FP assay conditions
Procedure: We started by labeling the pP11 peptide with N-terminally attached BODIPY FL, as described by Shapiro at al.. […] We then produced F11, another labelled peptide P11, by changing the fluorescent label to fluorescein-5-thiourea (FTU) by coupling with fluorescein-5-isothiocyanate (FITC). […] To directly compare FP and NMR data, we made measurements in MES pH 6.5 buffer. Brij-35 detergent (0.01% w/v) was added below its critical micellar concentration (0.11% w/v) to prevent spurious binding of the peptide to the reading plates. […] We tested buffer with and without salt.
Such derivatives were recently described as tags for bioconjugation, but, to our knowledge, not for an FP assay. […] To assess the properties of BODIPY FL as a fluorescent label for P peptides, we produced a new series of eight dicyano BODIPY FL-labeled (BCNn) peptides of variable length (Table 4) and tested them for N-RNA binding.

[2] = target: T1, RSV nucleoprotein N-terminal domain …; assay: fluorescence polarisation; 200 nM F11, NNTD 0.1–120 µM; 20 mM MES pH 6.5, 250 mM NaCl, 0.01% Brij-35; 20 °C; single site model; saturation not reached; conditions: both partners purified
[3] = target: T1, RSV nucleoprotein N-terminal domain …; assay: fluorescence polarisation; 200 nM F11, NNTD varied; 20 mM MES pH 6.5 without salt, 0.01% Brij-35; 20 °C; single site plus a linear contribution; conditions: both partners purified

| Molecule | chemical stability [1] | Kd [2] [µM] | Kd [3] [µM] |
| --- | --- | --- | --- |
| Cc1cc(C)n2c1C=C1C=CC(CCC(=O)N[C@@H](CC(=O)O)C(=O)N[C@@H](COP(=O)(O)O)C(=O)N[C@@H](CC(=O)O)C(=O)N[C@@H](CC(N)=O)C(=O)N[C@@H](CC(=O)O)C(=O)N[C@@H](CC(C)C)C(=O)N[C@@H](COP(=O)(O)O)C(=O)N[C@@H](CC(C)C)C(=O)N[C@@H](CCC(=O)O)C(=O)N[C@@H](CC(=O)O)C(=O)N[C@@H](Cc3ccccc3)C(=O)O)=[N+]1[B-]2(F)F [BF2pP11] ({BODIPY(FL)}-D[pS]DNDL[pS]LEDF-OH) | prone to degradation |  |  |
| B1 |  | 90 ± 15 | 0.6 ± 0.1 |

Reference: article PMC9820559, “Investigation of the Fuzzy Complex between RSV Nucleoprotein and Phosphoprotein to Optimize an Inhibition Assay by Fluorescence Polarization” (International Journal of Molecular Sciences, 2022)
